Results taken from patent US20230407373A1 (priority 2020, published 2023).
Where two headings read alike, the source gives them in different places.

Columns and labels:
Assay type in all cases: binding
[1] = tested on: SARS-CoV-2 gRNA and sgRNAs; details: for background (unweighted spectral count in control): no-probe control pull-down, used as background for Probe II
[2] = tested on: gRNA of HCoV-OC43; details: for target (spectral count) / background (spectral count): type g_36_m, 36 hpi, Probe I; for target (spectral count): HCoV-OC43-infected HCT-8 cells; for background (spectral count): uninfected-probe control; for target (spectral count, OC43 Probe I RNP capture) / background (spectral count, no-probe control): type n_48_v: 48 hours post-infection; for target (spectral count, OC43 Probe I RNP capture): infected cells, unweighted spectral count; for background (spectral count, no-probe control): no-probe control on infected cells
[3] = tested on: SARS-CoV-2 gRNA; details: for target (unweighted spectral count of the protein in the RNP capture): LC-MS/MS, Probe I sample (first 199 lines of Table 2)
[4] = tested on: HCoV-OC43 gRNA and sgRNA; details: for target (unweighted spectral count, OC43 Probe II capture) / target (spectral count) / background (spectral count): 36 hpi; for target (unweighted spectral count, OC43 Probe II capture): type n_36_v, FDR<10%; for target (unweighted spectral count, OC43 Probe II capture) / target (unweighted spectral count): tested against no-probe control; for target (unweighted spectral count): OC43 Probe II, infected cells; for target (unweighted spectral count, OC43 Probe II) / background (unweighted spectral count, no-probe control): type n_48_v, 48 hpi; for target (unweighted spectral count, OC43 Probe II): OC43 Probe II capture on infected cells; for background (unweighted spectral count, no-probe control): no-probe control on infected cells; for target (spectral count) / background (spectral count): type s_36_m, Probe II; for target (spectral count): HCoV-OC43-infected HCT-8 cells; for background (spectral count): uninfected-probe control

Molecule	enrichment in SARS-CoV-2 Probe II RNP capture [1]	background (unweighted spectral count in control) [1]	target (spectral count) [2]	background (spectral count) [2]	target (spectral count, OC43 Probe I RNP capture) [2]	background (spectral count, no-probe control) [2]	enrichment in SARS-CoV-2 Probe I RNP capture [3]	target (unweighted spectral count, OC43 Probe II capture) [4]	target (unweighted spectral count) ([4]; 12 hpi (type n_12_v))	target (unweighted spectral count) ([4]; 24 hpi (type n_24_v))	target (unweighted spectral count, OC43 Probe II) [4]	background (unweighted spectral count, no-probe control) [4]	target (spectral count) [4]	background (spectral count) [4]	target (unweighted spectral count of the protein in the RNP capture) [3]	target (unweighted spectral count in RNP capture) ([1]; Probe II capture, […], LC-MS/MS LFQ)
NONO: host protein, UniProt Q15233 (protein, UniProt Q15233 1-471, looked up) Non-POU domain-containing …: MQSNKTFNLEKQNHTPRKHHQHHHQQQHHQQQQQQPPPPPIPANGQQASSQNEGLTIDLKNFRKPGEKTFTQRSRLFVGNLPPDITEEEMRKLFEKYGKAGEVFIHKDKGFGFIRLETRTLAEIAKVELDNMPLRGKQLRVRFACHSASLTVRNLPQYVSNELLEEAFSVFGQVERAVVIVDDRGRPSGKGIVEFSGKPAARKALDRCSEGSFLLTTFPRPVTVEPMDQLDDEEGLPEKLVIKNQQFHKEREQPPRFAQPGSFEYEYAMRWKALIEMEKQQQDQVDRNIKEAREKLEMEMEAARHEHQVMLMRQDLMRRQEELRRMEELHNQEVQKRKQLELRQEEERRRREEEMRRQQEEMMRRQQEGFKGTFPDAREQEIRMGQMAMGGAMGINNRGAMPPAPVPAGTPAPPGPATMMPDGTLGLTPPTTERFGQAATMEGIGAIGGTPPAFNRAAPGAEFAPNKRRRY	found in the SARS-CoV-2 experiments	1	28	6	36	3	found in the SARS-CoV-2 experiments	23	4	14	31	3	23	4	–	–
MOV10: host protein, UniProt Q9HCE1 (protein, UniProt Q9HCE1 1-1003, looked up) Helicase MOV-10: MPSKFSCRQLREAGQCFESFLVVRGLDMETDRERLRTIYNRDFKISFGTPAPGFSSMLYGMKIANLAYVTKTRVRFFRLDRWADVRFPEKRRMKLGSDISKHHKSLLAKIFYDRAEYLHGKHGVDVEVQGPHEARDGQLLIRLDLNRKEVLTLRLRNGGTQSVTLTHLFPLCRTPQFAFYNEDQELPCPLGPGECYELHVHCKTSFVGYFPATVLWELLGPGESGSEGAGTFYIARFLAAVAHSPLAAQLKPMTPFKRTRITGNPVVTNRIEEGERPDRAKGYDLELSMALGTYYPPPRLRQLLPMLLQGTSIFTAPKEIAEIKAQLETALKWRNYEVKLRLLLHLEELQMEHDIRHYDLESVPMTWDPVDQNPRLLTLEVPGVTESRPSVLRGDHLFALLSSETHQEDPITYKGFVHKVELDRVKLSFSMSLLSRFVDGLTFKVNFTFNRQPLRVQHRALELTGRWLLWPMLFPVAPRDVPLLPSDVKLKLYDRSLESNPEQLQAMRHIVTGTTRPAPYIIFGPPGTGKTVTLVEAIKQVVKHLPKAHILACAPSNSGADLLCQRLRVHLPSSIYRLLAPSRDIRMVPEDIKPCCNWDAKKGEYVFPAKKKLQEYRVLITTLITAGRLVSAQFPIDHFTHIFIDEAGHCMEPESLVAIAGLMEVKETGDPGGQLVLAGDPRQLGPVLRSPLTQKHGLGYSLLERLLTYNSLYKKGPDGYDPQFITKLLRNYRSHPTILDIPNQLYYEGELQACADVVDRERFCRWAGLPRQGFPIIFHGVMGKDEREGNSPSFFNPEEAATVTSYLKLLLAPSSKKGKARLSPRSVGVISPYRKQVEKIRYCITKLDRELRGLDDIKDLKVGSVEEFQGQERSVILISTVRSSQSFVQLDLDFNLGFLKNPKRFNVAVTRAKALLIIVGNPLLLGHDPDWKVFLEFCKENGGYTGCPFPAKLDLQQGQNLLQGLSKLSPSTSGPHSHDYLPQEREGEGGLSLQVEPEWRNEL	found in the SARS-CoV-2 experiments	1	26	1	25	1	found in the SARS-CoV-2 experiments	24	–	35	37	1	24	1	16	–
MATR3: host protein, UniProt P43243 (protein, UniProt P43243 2-847, looked up) Matrin-3: SKSFQQSSLSRDSQGHGRDLSAAGIGLLAAATQSLSMPASLGRMNQGTARLASLMNLGMSSSLNQQGAHSALSSASTSSHNLQSIFNIGSRGPLPLSSQHRGDADQASNILASFGLSARDLDELSRYPEDKITPENLPQILLQLKRRRTEEGPTLSYGRDGRSATREPPYRVPRDDWEEKRHFRRDSFDDRGPSLNPVLDYDHGSRSQESGYYDRMDYEDDRLRDGERCRDDSFFGETSHNYHKFDSEYERMGRGPGPLQERSLFEKKRGAPPSSNIEDFHGLLPKGYPHLCSICDLPVHSNKEWSQHINGASHSRRCQLLLEIYPEWNPDNDTGHTMGDPFMLQQSTNPAPGILGPPPPSFHLGGPAVGPRGNLGAGNGNLQGPRHMQKGRVETSRVVHIMDFQRGKNLRYQLLQLVEPFGVISNHLILNKINEAFIEMATTEDAQAAVDYYTTTPALVFGKPVRVHLSQKYKRIKKPEGKPDQKFDQKQELGRVIHLSNLPHSGYSDSAVLKLAEPYGKIKNYILMRMKSQAFIEMETREDAMAMVDHCLKKALWFQGRCVKVDLSEKYKKLVLRIPNRGIDLLKKDKSRKRSYSPDGKESPSDKKSKTDGSQKTESSTEGKEQEEKSGEDGEKDTKDDQTEQEPNMLLESEDELLVDEEEAAALLESGSSVGDETDLANLGDVASDGKKEPSDKAVKKDGSASAAAKKKLKKVDKIEELDQENEAALENGIKNEENTEPGAESSENADDPNKDTSENADGQSDENKDDYTIPDEYRIGPYQPNVPVGIDYVIPKTGFYCKLCSLFYTNEEVAKNTHCSSLPHYQKLKKFLNKLAEERRQKKET	found in the SARS-CoV-2 experiments	–	57	4	41	3	found in the SARS-CoV-2 experiments	39	11	20	39	3	39	4	56	–
DAZAP1: host protein, UniProt Q96EP5 (protein, UniProt Q96EP5 1-407, looked up) DAZ-associated protein 1: MNNSGADEIGKLFVGGLDWSTTQETLRSYFSQYGEVVDCVIMKDKTTNQSRGFGFVKFKDPNCVGTVLASRPHTLDGRNIDPKPCTPRGMQPERTRPKEGWQKGPRSDNSKSNKIFVGGIPHNCGETELREYFKKFGVVTEVVMIYDAEKQRPRGFGFITFEDEQSVDQAVNMHFHDIMGKKVEVKRAEPRDSKSQAPGQPGASQWGSRVVPNAANGWAGQPPPTWQQGYGPQGMWVPAGQAIGGYGPPPAGRGAPPPPPPFTSYIVSTPPGGFPPPQGFPQGYGAPPQFSFGYGPPPPPPDQFAPPGVPPPPATPGAAPLAFPPPPSQAAPDMSKPPTAQPDFPYGQYAGYGQDLSGFGQGFSDPSQQPPSYGGPSVPGSGGPPAGGSGFGRGQNHNVQGFHPYRR	–	1	11	1	18	1	–	13	–	7	22	1	13	2	13	11
